Measured values published in PMC9213775 (iScience, 2022).

Target: the molecule itself
Test: AUC

B1: UDS1-His6 (natural protein, Aspergillus nidulans, UniProt Q5B1I5 1-941, looked up)
chain: MNGFDFRSSQSSYGDPRHFSDASYGVPQPPPTKVLLDGYRDALGPANAEKSLYNSANPTSHPRRSIPPSANDPVAMYLLTETAMGDSVNYEILSVEEVEGLKKELRVLSNRMNAAKRKLALELKLRDAAMSLSRLHHKEEHDVDGSGRNEPNTDKTNEELVHINRKCEELSMDIWYSERKVQEIQKRLLEHTAGVLQLTHKGLKKNSKNGMPHTPESLSSSNTVDDFDDRSLYKASDPLDGPETYETRAPPPDNLAHDNSMQETERKLESMSSRLRDMLLQLDPDSEFSQIPQPSTSGDSFEPSAMIDAHLRYIENGISALGSLPKADMASQSLDPVSEQQLVEMRTQLLSIMENPGLPRAQTLPTAPDPTDSDLAKHLTFLSVGINGLESRVEKLLEQKSILTTQIQQQRELNSKSDAERDAKIADLIEQLAHLRKELELAEREGQQSKEDHDLTLKELEDVRRELLESRETHSSRDLGNSKNEAQQHAEAEIARLQSVIQEIQQEKDEHCEAHRRAEAEIDRLQAVIHQIQQEKDEHREAHERAEAETTRLQTIVEEVQQEKDEQHEAHGRAVAEVTRLQDIIQKIEQEKIERHEADERAEAEIVRLRDTIREIQQEKEEHHEARVRLEGEVARLQGVIGQLQESAESRESAEQQVAQLEETIHQIRHDADIRIKEATDSRAQADAKIAQLEGAMNEVRESLESQLKEATEARNNAEENSTRLQKELTELERDVVRAQTELTMVKAELDGAYGTRAQRAAEAAADPALFHELDELKARNFEMAEELAALKAGKPGSGDVHNRVETLERELRETVDDYEAMTKASIEFEKERERFESMIDSLRDRCEQLETQLNEERISWMGANNSASSMGRDGPYETTSTMVLKNEFKKMMRDTRAENMKILKAEQEERRKLEAILRNLKREQANLSGKSNISRTVTAS
- stoichiometry N: 2
